According to a protein production outcome set (Wang et al. 2014):

Test: label from the status in PepcDB records

Sequence | protein production
MADERYNRKNPAVKRILQEVKEMQANPSDDFMSLPLEENIFEWQFAIRGPGDTEFEGGIYHGRIQLPADYPFKPPSFMLLTPNGRFETNTKICLSISNYHPEHWQPSWSVRTALVALIAFMPTSPNGALGSVDYPKDERRTLAIKSRETPPKYGSPERQKIIDEIHQYILSKATVVPKPLPLECSQAPSIVSEAHSQVEPQEAITVVEERSIATTDTIVDDQIIEETAEAVNTAASVVPAAAPLPAVEVVVKASVSGEQRMARRAAQKPVDDRLFTWAAVGLTIAIMVLLLKKFIKSNGYSTGFMDDQS | failed
MADFQGETEMTAEVFDPRALRDAFGAFATGVTVVTASDAAGKPIGFTANSFTSVSLDPPLLLVCLAKSSRNYESMTSAGRFAINVLSETQKDVSNTFARPVEDRFAAVDWRLGRDGCPIFSDVAAWFECSMQDIIEAGDHVIIIGRVTAFENSGLNGLGYARGGYFTPRLAGKAVSAAVEGEIRLGAVLEQQGAVFLAGNETLSLPNCTVEGGDPARTLAAYLEQLTGLNVTIGFLYSVYEDKSDGRQNIVYHALASDGAPRQGRFLRPAELAAAKFSSSATADIINRFVLESSIGNFGIYFGDETGGTVHPIANKDAHS | not failed
MADIDQASKTEMEAAAFRHLLRHLDEHKDVQNIDLMIQADFCRNCLAKWLMEAATEQGVELDYDGAREYVYGMPFAEWKTLYQKPASEAQLAAFEAKQAARKR | not failed
MADKAFHTRLINMRRDLHEHPELSFQEVETTKKIRRWLEEEQIEILDVPQLKTAVIAEIKGREDGPVIAIRADIDALPIQEQTNLPFASKVDGTMHACGHDFHTASIIGTAMLLNQRRAELKGTVRFIFQPAEEIAAGARKVLEAGVLNGVSAIFGMHNKPDLPVGTIGVKEGPLMASVDRFEIVIKGKGGHASIPNNSIDPIAAAGQIISGLQSVVSRNISSLQNAVVSITRVQAGTSWNVIPDQAEMEGTVRTFQKEARQAVPEHMRRVAEGIAAGYGAQAEFKWFPYLPSVQNDGTFLNAASEAAARLGYQTVHAEQSPGGEDFALYQEKIPGFFVWMGTNGTEEWHHPAFTLDEEALTVASQYFAELAVIVLETIK | not failed
MADKAVADRTIEGLTRAGAAMAAGEIDQAAAHLQAAAQLCPDEPMIWALLGEVLLLLDRPQDGLGALDRALALAPEDPRPRFHRARAFERLDRLAEALADQEALAILCANKAEVWHNLGLLRRAGGDPSGAEAAFGRALALEPSRAESALALAHSLLGRAAWAEGFAHYEARLSLPGWQRPAPLPGRRWRGEDPAGRTLLVSAEQGLGDGVQFLRYLPLIKGAGKVIVECHPPLRRLIAAQPGVDATIAFGEAIPDLGAEGLTIPLASLALPLAGGAPLGERIPYVSKPRLRPQGDRPRIGLAWRSSDRAELRRDPPLAALAALAAIPAVDWVSLQFAPTDYPALPLDLRPMASVDDLDDTAALIADLDLVISVDTAVAHLAGAMGKPLWVLLGPRADWRWTASAQSSPWYPSCVPFFHGAEGWPGVIAAVSERLKAAFNGPPAR | failed
MADKVYEATAEAKGYNEEGVPIVLTVKAIKKDGKVVVTDIVAKHQETDKIGAVAIEKLIEEVKTKQNYNKLDSVAGATSTSAGFRRAIRNAVKDIEKQNLEHHHHHH | not failed
MADMESLDTAEMQEAAEKQAALFPNGGKSAEPTAAKHTATGLADGNKKPPVSNSFLDKFFQISKRGSTLAREFRGGLVTFFTMAYIVILNPLILGGFSAENAPTDVAGGWLSAAQVGAVTGLTAGVMTIIFGLVANLPFGLAAGLGINSFLAVAVIQEVTWPEAMGLVVINGILIVLFGATGARTAIFKAVPKELKAAITVGIGLFIAFIGFVDSGFVRATTGGPPVQLGDNGSITSIPTLVFIVGLLTMGILVARKIQGGLLIGIVATTVLAAVVEAVFHIGPGSADNPGGWHLNVPILSSQLVSVPDLSLVGQFDLFGSFARIGGLAATMLVFTLVFTNFFDAMGTMTGLAKSAGVAHKDGTFPKLKSAFIVEGMGAVVGGATSGSSNTVYIDSAAGIGEGARTGLASVVTGLLFLGSMFFTPLTSVVPLEVAAAALVVVGAMMMAQIREIKFTKFSIALPAFLTIVTMPLTYSIANGIGVGFISFAVISAASGKAKKVHPLMWVVTAGFIIYFARGPINALMGV | failed
MADNSATRVRVPSDRNSRRKIKGEVDIISSLPDVILQHILFSFQTKYAIRTSVLSKRWRHEADAINKALSQYTAPKMMNFHLKINKNNSLHHIKKWTEFAMSRNVENMSLDVRFRSNKIPRFYEINSSVKSLSHRLDLHDVIPRHGVSWTSLKKFSLSYCGLPDESAKILSGCPILEWPMQIVAPQIHCLKLRNTQLPCTLVDVSSLTEAEVLDIIIFPVNLSYNADFLHATMLEMLKKLKNVEKLTFSGSYLQNLSVAEKRGVPFPMFKVKALTLEMKHFVISDIERMLQSSPNLKKLTVRAKDNTGKYLYRYFARLESGSMLELKKGV | failed
